Measurements reported in patent publication US20120294865A1 (REGENTS OF THE UNIVERSITY OF MICHIGAN, published 2012).

T1: peptide of SEQ ID NO: 33 (AIASIPTERYFFNVS) (human)
T1 construct: 15-mer on a peptide microarray (ProImmune)
T1 peptide: AIASIPTERYFFNVS

T2: peptide of SEQ ID NO: 32 (YANNPRVVFNLNTYK) (human)
T2 construct: 15-mer on a peptide microarray (ProImmune)
T2 peptide: YANNPRVVFNLNTYK


How the values were obtained:
[1] = molecular target: T1, peptide of SEQ ID NO: 33 …; experiment: peptide microarray, fluorescent secondary antibody
Method: (§1) Epitope mapping was performed by incubating monoclonal antibody (mAb) samples with a peptide microarray, followed by incubation with a fluorescent-labelled secondary antibody. After washing, the microarray was scanned in a high-resolution scanning system. The peptide microarray consisted of a set of 15-mer peptides overlapping by 10 residues taken from the human alpha-2 integrin subunit (Genbank accession number AAM34795.1; amino acid residues 1-1133 were used). Peptide arrays, antibody incubations, scanning and data analysis were generated by ProImmune Inc, 4281 Express Lane, Suite L2378, Sarasota, Fla. 34238.

[2] = molecular target: T2, peptide of SEQ ID NO: 32 …; experiment: peptide microarray, fluorescent secondary antibody
Method: as §1

binding result [1] | binding result [2] | Binder
binds | binds | Ab 778.17 (antibody, V domains shown, Mouse monoclonal antibody from a hybridoma) VH: QVQLQQPGAELVRPGTSVKLSCKASGYTFASYWMNWVSQRPEQGLEWIGRIDPYDSETHYNQKFKDKAILTVDKSSSTAYIQLNSLTSEDSAVYYCARLGRGPFAYWGQGTLVTVSA VL: DIVMTQTPTSLAVSLGQRATISCRASESVDSYDNSFMYWYQQKPGQPPKLLIYFASNLESGVPARFSGSGSRTDFTLTIDPVEADDAATYYCQQNNEDPYTFGGGTKLEIKR
binds | binds | Ab 770.8 (antibody, V domains shown, Mouse monoclonal antibody from a hybridoma, used as ascites or purified) VH: EVKLEESGTVLARPGASVKMSCKASGYSFTSYWMHWVKQRPGQGLEWIGAFYPGNSEDKYNENFKIKAKLTAVTSVNTVYMELSSLTSEDSAVYYCTRGTTLVAPGFDVWGAGTTVTVSS VL: DIVMTQSPAILSVSPGERVSFSCRASQSIGTSIHWYQQRTNGSPRLLIKYVSESISGIPSRFSGSGSGTDFTLTINSVESEDIADYYCQHSNRWPLTFGAGTKLELKR
